Primed or numbered codes have the meaning given here. No end group written: not given here. Biotin′ = biotin label at the C-terminus
Legend:
Experiment in all cases: peptide scanning ELISA, biotin peptide on streptavidin
WGPRPRRYTVLSK-Biotin = target: T1, WGPRPRRYTVLSK-Biotin (human)
T1 construct: Overlapping peptide of the outer loop of human LAG-3; also called LAG-3 Extra cyclic peptide
T1 peptide: WGPRPRRYTVLSK-{Biotin′}
Experimental: (§1) Fifteen overlapping peptides including the full length of the outer loop sequence were prepared and biotin was coupled to each C-terminus. Enzyme-linked immunosorbent assay (ELISA) was used to detect the binding of antibodies to these peptides. Streptavidin (sigma, Cat #M5432) was diluted with PBS to a final concentration of 1.0 μg/ml, and then added as 100 μl per well to a 96-well ELISA plate. The plate was sealed with plastic film and incubated overnight at 4° C. The plate was washed 2 times with the plate washing solution (PBS+0.01% Tween20) on the next day, and added with the blocking solution (PBS+0.01% Tween20+1% BSA) and blocked at room temperature for 1-2 hours. The blocking solution was poured off, and biotinylated peptides was added to a final concentration of 1 ug/ml, as 100 ul per well to the 96-well ELISA plate, incubated at 37° C. for 1-2 hours, then washed with plate washing solution (PBS+0.01% Tween20)2-3 times. Then the antibody samples to be tested were incubated as 100 μl per well at 37° C. for 1-2 hours, and then the plate was washed 2-3 times with a plate washing solution (PBS+0.01% Tween20). HRP (horseradish peroxidase) labeled secondary antibody was added, and the plate was incubated at 37° C. for 1-2 hours, and washed 2-3 times with a plate washing solution (PBS+0.01% Tween20). 100 μl of TMB substrate was added to each well. After incubated at room temperature for 15-30 minutes, the plate was added with 100 μl of stop solution (1.0N HCl) to each well.

[1] = target: T2, GPPAAAPGHPLAPGPHPAAPSSWGPRPRRYK-biotin (full length of the outer loop) (human, biotin coupled to the C-terminus (K-biotin))
T2 construct: Printed over two rows (r36 and r37; again r54 and r55); also called LAG-3 Extra cyclic peptide
T2 peptide: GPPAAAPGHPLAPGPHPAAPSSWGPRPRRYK
Experimental: as §1

SWGPRPRRYTVLK-Biotin = target: T3, SWGPRPRRYTVLK-Biotin (human)
T3 construct: Overlapping peptide of the outer loop of human LAG-3; also called LAG-3 Extra cyclic peptide
T3 peptide: SWGPRPRRYTVLK-{Biotin′}
Experimental: as §1

SSWGPRPRRYTVK-Biotin = target: T4, SSWGPRPRRYTVK-Biotin (human)
T4 construct: Overlapping peptide of the outer loop of human LAG-3; also called LAG-3 Extra cyclic peptide
T4 peptide: SSWGPRPRRYTVK-{Biotin′}
Experimental: as §1

PSSWGPRPRRYTK-Biotin = target: T5, PSSWGPRPRRYTK-Biotin (human)
T5 construct: Overlapping peptide of the outer loop of human LAG-3; also called LAG-3 Extra cyclic peptide
T5 peptide: PSSWGPRPRRYTK-{Biotin′}
Experimental: as §1

AAPSSWGPRPRRK-Biotin = target: T6, AAPSSWGPRPRRK-Biotin (human)
T6 construct: Overlapping peptide of the outer loop of human LAG-3; also called LAG-3 Extra cyclic peptide
T6 peptide: AAPSSWGPRPRRK-{Biotin′}
Experimental: as §1

APSSWGPRPRRYK-Biotin = target: T7, APSSWGPRPRRYK-Biotin (human)
T7 construct: Overlapping peptide of the outer loop of human LAG-3; also called LAG-3 Extra cyclic peptide
T7 peptide: APSSWGPRPRRYK-{Biotin′}
Experimental: as §1

PAAPSSWGPRPRK-Biotin = target: T8, PAAPSSWGPRPRK-Biotin (human)
T8 construct: Overlapping peptide of the outer loop of human LAG-3; also called LAG-3 Extra cyclic peptide
T8 peptide: PAAPSSWGPRPRK-{Biotin′}
Experimental: as §1

Measured: binding result

B1: 405B8H3 (mouse antibody purified from hybridoma) (antibody, V domains shown)
VH: QVQLQQSGAELVRPGASVTLSCKASGYTFTDYEMHWVKQTPVHGLEWIGATDPETGNSAYNQKFKGKAIMTADKSSSTAYMELRSLTSEDSAVYYCISTGWNDWGQGTSLTVSS
VL: DIKMTQSPSSMYASLGERVTITCKASQDINSYLSWFQQKPGKSPKTLIYRADRLLDGVPSRFSGSGSGQDYSLTISSLEYGDMGIYYCLQYDEFPYTFGGGTKLEIK
notes: also called mAb103-405B8H3; 405B81-13
binds: WGPRPRRYTVLSK-Biotin | [1] | SWGPRPRRYTVLK-Biotin | SSWGPRPRRYTVK-Biotin | PSSWGPRPRRYTK-Biotin | AAPSSWGPRPRRK-Biotin | APSSWGPRPRRYK-Biotin | PAAPSSWGPRPRK-Biotin

B2: 105F1E10 (mouse antibody purified from hybridoma) (antibody, V domains shown)
VH: EVQLQQSGPELVKPGASVKMSCRASGYTFTDFKMHWMKQSHGKSLEWIGYIAPNNGGTAYNQKFRGKATLTVNESSNTAYMELRSLTSEDSAVYYCVDWDDVDYWGQGTTLTVSS
VL: DIKMTQSPSSMYASLGERVTITCKASQDINSYLSWFQQKSGKSPKTLIYRANRLVDGVPSRFSGSGSGQDYSLTISSLEYEDMGIYYCLQYVEFPLTFGAGTKLELK
notes: also called mAb009-105F1E10
binds: WGPRPRRYTVLSK-Biotin | [1] | SWGPRPRRYTVLK-Biotin | SSWGPRPRRYTVK-Biotin | PSSWGPRPRRYTK-Biotin | AAPSSWGPRPRRK-Biotin | APSSWGPRPRRYK-Biotin | PAAPSSWGPRPRK-Biotin

B3: 409D4E10 (mouse antibody purified from hybridoma) (antibody, V domains shown)
VH: QVQLQQSGAELVRPGASVTLSCKASGNTFTDYEMHWVKQTPVHGLEWIGATDPETDNTAYNQKFKGKAILTTDKSSSTAYMELRSLTSEDSAVYYCITSGWNDWGQGTSLTVSS
VL: DIKMTQSPSSMYASLGERVTITCKASQDINSYLSWFQQKPGKSPKTLIYRANRLLDGVPSRFSGSGSGQDYSLTISSLEYEDMGIYYCLQYNEFPYTFGGGTKLEIK
notes: also called mAb112-409D4E10
binds: WGPRPRRYTVLSK-Biotin | [1] | SWGPRPRRYTVLK-Biotin | SSWGPRPRRYTVK-Biotin | PSSWGPRPRRYTK-Biotin | AAPSSWGPRPRRK-Biotin | APSSWGPRPRRYK-Biotin | PAAPSSWGPRPRK-Biotin

B4: 409B11E12 (mouse antibody purified from hybridoma) (antibody, V domains shown)
VH: QVQLQQSGAELVRPGASVTLSCKASGYTFTDYEMHWVKQTTVHGLEWIGATDPETSYSAYNQKFKGKAILTADKSSSTAYMELRSLTSEDSAVYYCIATGWNDWGQGTSLTVSS
VL: DLKMTQSPSSMYASLGERVTITCKASQDINSYLSWFQQKPGKSPKTLIYRANRLLDGVPSRFSGSGSGQDYSLTISSLEYEDMGIYYCLQYDEFPYTFGGGTKLEIK
notes: also called mAb104-409B11E12
binds: WGPRPRRYTVLSK-Biotin | [1] | SWGPRPRRYTVLK-Biotin | SSWGPRPRRYTVK-Biotin | PSSWGPRPRRYTK-Biotin | AAPSSWGPRPRRK-Biotin | APSSWGPRPRRYK-Biotin | PAAPSSWGPRPRK-Biotin

— patent US20210155689A1 (SHANGHAI PHARMAEXPLORER, published 2021)
